Reference: publication PMC6579771

Molecular target: S2-AAL, monovalent form of Aleuria aurantia lectin (Aleuria aurantia)
Test: microfluidic displacement assay with fluorescence detection; S2-AAL immobilised on the PDMS/glass microchannel (APTES, glutaraldehyde), blocked with BSA; labeled lactoferrin 0.15 mg/ml in PBS perfused, washed with PBS; then fucose in PBS or PBS alone at 0.1 ul/min; fluorescence at the …

% of initial fluorescence intensity left after 10 min perfusion with PBS only: 99%
Substance: Human lactoferrin isolated from breast milk, labeled with DyLight 488 (natural protein)
